The values that follow come from the supplement of paper PMC9233669.

Data set [1] relates to biotinyl-Phe-oxazolone. Kind of data set: self-aminoacylation, catalytic enhancement (BFO) (fold over background); higher = more active; k-Seq, kA / k0A0; sequences stand for … in GGGAAUGGAUCCACAUCUACGAAUUC…UUCACUGCAGACUUGACGAAGCUG
The essentials: (§1)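 Mutagenized RNA pools (0.43 μM; 21-nt variable region) were treated with 2–1250 μM of each biotinyl-aminoacyl-oxazolone. Conditions were 50 μL HEPES/NaCl/KCl/MgCl2/CaCl2 buffer, 5% acetonitrile, pH 6.9–7.0, room temperature, 90 minutes. Catalytic enhancement, the median kA relative to the uncatalyzed rate, was derived from streptavidin capture, qPCR and Illumina sequencing.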

The test system of data set [2] is biotinyl-Ile-oxazolone. Kind of data set: self-aminoacylation, catalytic enhancement (BIO) (fold over background); higher = more active; k-Seq, kA / k0A0; sequences stand for … in GGGAAUGGAUCCACAUCUACGAAUUC…UUCACUGCAGACUUGACGAAGCUG
The essentials:
as §1

Data set [3] concerns biotinyl-Met-oxazolone. Kind of data set: self-aminoacylation, catalytic enhancement (BMO) (fold over background); higher = more active; k-Seq, kA / k0A0; sequences stand for … in GGGAAUGGAUCCACAUCUACGAAUUC…UUCACUGCAGACUUGACGAAGCUG
The essentials:
as §1

In data set [4] the test system is biotinyl-Val-oxazolone. Kind of data set: self-aminoacylation, catalytic enhancement (BVO) (fold over background); higher = more active; k-Seq, kA / k0A0; sequences stand for … in GGGAAUGGAUCCACAUCUACGAAUUC…UUCACUGCAGACUUGACGAAGCUG
The essentials:
as §1

Data set [5] relates to biotinyl-Leu-oxazolone. Kind of data set: self-aminoacylation, catalytic enhancement (BLO) (fold over background); higher = more active; k-Seq, kA / k0A0; sequences stand for … in GGGAAUGGAUCCACAUCUACGAAUUC…UUCACUGCAGACUUGACGAAGCUG
The essentials:
as §1

Data set [6] has as its system biotinyl-Trp-oxazolone. Kind of data set: self-aminoacylation, catalytic enhancement (BWO) (fold over background); higher = more active; k-Seq, kA / k0A0; sequences stand for … in GGGAAUGGAUCCACAUCUACGAAUUC…UUCACUGCAGACUUGACGAAGCUG
The essentials: as §1

Variants at the floor of the assay were thinned out.

Turning to “GUACUUCAAACAAUCGGUGUG [Fam1A.1 aminoacylation ribozyme variant]”, the self-aminoacylation in data set [1] was determined as 10.4; in data set [2] it was 2.12; in data set [3] it was 2.77; in data set [4], 1.97; in data set [5], 3.35; in data set [6] it was 10.2.
For “AGUACCCUGGUCAUGGAGUGA [Fam2.1 aminoacylation ribozyme variant]”, the self-aminoacylation worked out at 11 in data set [1]; 2.31 in data set [2]; 2.7 in data set [3]; 2.27 in data set [4]; 3.1 in data set [5]; 2.82 in data set [6].
With “AUUACCCAGGUCGUCGAGUGA [Fam2.1 aminoacylation ribozyme variant]”, the self-aminoacylation is 0.686 in data set [1]; 0.849 in data set [2]; 0.786 in data set [3]; 0.951 in data set [4]; 0.669 in data set [5]; 0.416 in data set [6].
With “AGUACCCUGGUCAUCGAGGGA [Fam2.1 aminoacylation ribozyme variant]”, the self-aminoacylation is 1.82 in data set [1]; 1.43 in data set [2]; 1.22 in data set [3]; 1.47 in data set [4]; 2.21 in data set [5]; 2.91 in data set [6].
In the case of “AUUACCCAGGUCAUCGAGUGC [Fam2.1 aminoacylation ribozyme variant]”, the self-aminoacylation in data set [1] was determined as 0.417; in data set [2], 0.777; in data set [3] it was 0.643; in data set [4], 0.958; in data set [5], 0.919; in data set [6], 0.852.
Take “AUUACCGCGGUCAUCGAGUGA [Fam2.1 aminoacylation ribozyme variant]”: the self-aminoacylation in data set [1] is 36.1; in data set [2] it was 3.36; in data set [3], 5.86; in data set [4], 3.11; in data set [5], 6.47; in data set [6], 7.16.
For the sequence “AUUACCUUGGUCAUCGAGUUA [Fam2.1 aminoacylation ribozyme variant]”, the self-aminoacylation was 0.913 in data set [1]; 1.18 in data set [2]; 1.19 in data set [3]; 1.03 in data set [4]; 0.814 in data set [5]; 0.524 in data set [6].
Regarding “ACACAUUUCAAGCAAUCGGUC [Fam1B.1 aminoacylation ribozyme variant]”, the self-aminoacylation worked out at 2.41 in data set [1]; 1.2 in data set [2]; 1.12 in data set [3]; 1.41 in data set [4]; 1.12 in data set [5]; 1.86 in data set [6].
Regarding “AUUACACUGGUCAUCGAGUUA [Fam2.1 aminoacylation ribozyme variant]”, the self-aminoacylation in data set [1] is 0.876; in data set [2], 1.18; in data set [3], 1.05; in data set [4] it was 1.02; in data set [5], 1.09; in data set [6], 1.38.
With “CAACACUGCAAGCAAUCGGUC [Fam1B.1 aminoacylation ribozyme variant]”, the self-aminoacylation worked out at 0.892 in data set [1]; 1.12 in data set [2]; 1.3 in data set [3]; 1.24 in data set [4]; 1.46 in data set [5]; 0.788 in data set [6].
Consider “AUUACCCUGGUCAUCGAGUUC [Fam2.1 aminoacylation ribozyme variant]”, for which the self-aminoacylation in data set [1] came out at 4.38; in data set [2], 1.02; in data set [3], 1.88; in data set [4], 1.53; in data set [5] it was 2.17; in data set [6], 1.54.
Turning to “AUUACCCUGGUCAUCGAGUAC [Fam2.1 aminoacylation ribozyme variant]”, the self-aminoacylation in data set [1] was found to be 17.2; in data set [2], 2.32; in data set [3] it was 6.05; in data set [4] it was 3.03; in data set [5], 5.94; in data set [6], 4.57.
Take “AUUAGCCUGGUGAUCGAGUGA [Fam2.1 aminoacylation ribozyme variant]”: the self-aminoacylation in data set [1] came to 41.1; in data set [2], 3.98; in data set [3], 7.43; in data set [4], 3.62; in data set [5], 7.61; in data set [6] it was 8.57.
“AUUCACCAAGGUCAUGGGGUG [Fam2.2 aminoacylation ribozyme variant]”: the self-aminoacylation in data set [1] came out at 77.3; in data set [2], 6.16; in data set [3], 9.1; in data set [4] it was 5.88; in data set [5], 12.7; in data set [6] it was 8.64.
Regarding “GUUACCCUGGUCAUCUAGUGA [Fam2.1 aminoacylation ribozyme variant]”, the self-aminoacylation amounted to 78.6 in data set [1]; 5.9 in data set [2]; 12 in data set [3]; 6.05 in data set [4]; 11.7 in data set [5]; 13.4 in data set [6].
Regarding “CCACACGUCAAGAAAUCGGUC [Fam1B.1 aminoacylation ribozyme variant]”, the self-aminoacylation in data set [1] is 1.01; in data set [2], 1.28; in data set [3] it was 1.17; in data set [4], 1.44; in data set [5], 1.28; in data set [6], 0.951.
Consider “AAUCACCUAGGGCAUCGGGUG [Fam2.2 aminoacylation ribozyme variant]”, for which the self-aminoacylation in data set [1] came out at 28; in data set [2] it was 3.31; in data set [3], 3.75; in data set [4], 3.49; in data set [5], 3.93; in data set [6], 5.34.
In the case of “AAUCACCUAGGUCAGCGGGUG [Fam2.2 aminoacylation ribozyme variant]”, the self-aminoacylation in data set [1] came to 28.9; in data set [2], 4.05; in data set [3], 4.61; in data set [4], 2.9; in data set [5], 4.16; in data set [6], 4.58.
Take “AUGUUUGCUAAUUGUCGCAAG [Fam3.1 aminoacylation ribozyme variant]”: the self-aminoacylation in data set [1] was 1.81; in data set [2], 1.38; in data set [3], 1.41; in data set [4] it was 1.17; in data set [5], 1.64; in data set [6] it was 2.13.
Consider “AGUCACCUAGGUCAUCGGGUC [Fam2.2 aminoacylation ribozyme variant]”, for which the self-aminoacylation in data set [1] stood at 4.41; in data set [2], 1.46; in data set [3], 2.13; in data set [4], 1.7; in data set [5], 1.82; in data set [6], 1.69.
In the case of “AUUCGCUUAGGUCAUCGGGUG [Fam2.2 aminoacylation ribozyme variant]”, the self-aminoacylation worked out at 52.5 in data set [1]; 4.11 in data set [2]; 7.02 in data set [3]; 4.24 in data set [4]; 8 in data set [5]; 6.47 in data set [6].
“GUUCACCCAGGUCAUCGGGUG [Fam2.2 aminoacylation ribozyme variant]”: the self-aminoacylation in data set [1] worked out at 29.1; in data set [2] it was 3.12; in data set [3], 3.77; in data set [4], 3.64; in data set [5] it was 5.02; in data set [6], 3.77.
Turning to “CCACACUUCUAACAAUCGGUC [Fam1B.1 aminoacylation ribozyme variant]”, the self-aminoacylation in data set [1] came out at 0.614; in data set [2] it was 0.797; in data set [3], 0.619; in data set [4] it was 0.798; in data set [5], 0.69; in data set [6], 0.618.
Regarding “UUUCACCUGGGUCAUCGGGUG [Fam2.2 aminoacylation ribozyme variant]”, the self-aminoacylation came out at 24.2 in data set [1]; 3.99 in data set [2]; 5.12 in data set [3]; 5.26 in data set [4]; 4.95 in data set [5]; 6.75 in data set [6].
Consider “CCACACUUCAGGCAAUCGGUU [Fam1B.1 aminoacylation ribozyme variant]”, for which the self-aminoacylation was determined as 6.44 in data set [1]; 1.68 in data set [2]; 2.24 in data set [3]; 1.98 in data set [4]; 2.13 in data set [5]; 2.37 in data set [6].
